Test results reported in the supplement of paper PMC7125110.
± gives the standard error. For some assays here: Fewer inactive variants are shown than the library holds.

B1: glmS ribozyme (parent)
chain: AUAAAAGCGCCAGAACUACAGAAAUGUAGUUGACGAGGAGGAGGUUUAUCGAAUUUUCGGCGGAUGCCUCCAAA

Experiments:
Details in all cases: with glucosamine-6-phosphate
glucosamine-6-phosphate [1] = variants of: B1; test: kcat; higher = faster cleavage; RNA array
Outline: (§1)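 E. coli RNA polymerase transcribed barcoded ribozyme variants in situ on sequenced MiSeq chips, which were tracked via a hybridised Cy3 probe at 37 °C. Tiles were imaged over ~14 h after glucosamine-6-phosphate (40 μM to 10 mM) in HEPES/KCl/Mg(OAc)2 buffer was flowed in. Normalised per-tile medians were fit to one- or two-exponential decays for kobs, and kcat and KM came from weighted Michaelis–Menten fits.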

glucosamine-6-phosphate [2] = variants of: B1; test: KM; higher = weaker cofactor use; RNA array
Outline: as §1

glucosamine-6-phosphate [3] = variants of: B1; test: self-cleavage kobs at 640 uM GlcN6P; higher = faster cleavage; RNA array
Outline: as §1

glucosamine-6-phosphate [4] = variants of: B1; test: self-cleavage kobs at 10000 uM GlcN6P; higher = faster cleavage; RNA array
Outline: as §1

glucosamine-6-phosphate [5] = variants of: B1; test: self-cleavage kobs at 2500 uM GlcN6P; higher = faster cleavage; RNA array
Outline: as §1

glucosamine-6-phosphate [6] = variants of: B1; test: self-cleavage kobs at 40 uM GlcN6P; higher = faster cleavage; RNA array
Outline: as §1

glucosamine-6-phosphate [7] = variants of: B1; test: self-cleavage kobs at 160 uM GlcN6P; higher = faster cleavage; RNA array
Outline: as §1

Row | Variant | kcat (glucosamine-6-phosphate [1]) | KM (glucosamine-6-phosphate [2]) | self-cleavage kobs at 640 uM GlcN6P (glucosamine-6-phosphate [3]) | self-cleavage kobs at 10000 uM GlcN6P (glucosamine-6-phosphate [4]) | self-cleavage kobs at 2500 uM GlcN6P (glucosamine-6-phosphate [5]) | self-cleavage kobs at 40 uM GlcN6P (glucosamine-6-phosphate [6]) | self-cleavage kobs at 160 uM GlcN6P (glucosamine-6-phosphate [7])
1 | G38A A52C | 1.04e-05 ± 2.3e-07 s⁻¹ | 129 ± 16 µM | < 1e-05 s⁻¹ | < 1e-05 s⁻¹ | – | – | –
2 | U31C U49G | 7.25e-05 ± 2.8e-06 s⁻¹ | 1610 ± 200 µM | 2.25e-05 ± 9.3e-06 s⁻¹ | 6.33e-05 ± 9.1e-06 s⁻¹ | 4.27e-05 ± 7.7e-06 s⁻¹ | – | –
3 | A6U G29C | < 1e-05 s⁻¹ | – | < 1e-05 s⁻¹ | – | – | < 1e-05 s⁻¹ | < 1e-05 s⁻¹
4 | G40C U55C | 0.000721 ± 0.00014 s⁻¹ | 4590 ± 1400 µM | 0.00012 ± 3.6e-05 s⁻¹ | 0.000483 ± 7.8e-05 s⁻¹ | 0.000287 ± 8.2e-05 s⁻¹ | – | 2.05e-05 ± 5.9e-06 s⁻¹
5 | G41A A53C | 0.000213 ± 5.7e-05 s⁻¹ | – | 8.67e-05 ± 2.5e-05 s⁻¹ | 0.000202 ± 3.9e-05 s⁻¹ | 0.000101 ± 2.7e-05 s⁻¹ | – | –
6 | A42G U45A | 0.0167 ± 0.0051 s⁻¹ | 303 ± 130 µM | – | – | – | 0.00181 ± 0.00058 s⁻¹ | 0.00634 ± 0.0022 s⁻¹
7 | G51U C58U | < 1e-05 s⁻¹ | – | – | < 1e-05 s⁻¹ | – | – | < 1e-05 s⁻¹
8 | C11U G32A | 0.000453 ± 3.3e-05 s⁻¹ | 1520 ± 290 µM | 0.00014 ± 3.1e-05 s⁻¹ | 0.000404 ± 4.4e-05 s⁻¹ | 0.000239 ± 5.9e-05 s⁻¹ | – | 5.04e-05 ± 2.1e-05 s⁻¹
9 | G44A U54A | 0.000692 ± 0.00012 s⁻¹ | 2530 ± 870 µM | 0.000132 ± 3.9e-05 s⁻¹ | 0.000538 ± 0.00011 s⁻¹ | 0.00051 ± 0.0002 s⁻¹ | – | –
10 | G40C G63C | < 1e-05 s⁻¹ | – | – | – | < 1e-05 s⁻¹ | – | < 1e-05 s⁻¹
11 | A14U U45A | 0.0137 ± 0.0043 s⁻¹ | 1480 ± 610 µM | 0.00404 ± 0.00082 s⁻¹ | 0.0148 ± 0.004 s⁻¹ | 0.00683 ± 0.0026 s⁻¹ | 0.000446 ± 7.7e-05 s⁻¹ | 0.00102 ± 0.00029 s⁻¹
12 | G13C C34U G35U | < 1e-05 s⁻¹ | – | – | < 1e-05 s⁻¹ | < 1e-05 s⁻¹ | < 1e-05 s⁻¹ | < 1e-05 s⁻¹
13 | A6G C70A | < 1e-05 s⁻¹ | – | – | < 1e-05 s⁻¹ | – | < 1e-05 s⁻¹ | –
14 | U56G U65C | 0.000622 ± 6.2e-05 s⁻¹ | 6800 ± 1000 µM | – | 0.000366 ± 0.00011 s⁻¹ | 0.000169 ± 3.3e-05 s⁻¹ | – | –
15 | G13U A36C G38U A39C | 1.03e-05 ± 4.7e-06 s⁻¹ | – | – | – | – | – | –
16 | A14U G29U | 0.000435 ± 4.6e-05 s⁻¹ | 2040 ± 400 µM | 0.000104 ± 9.7e-06 s⁻¹ | 0.000381 ± 3.2e-05 s⁻¹ | 0.000222 ± 2e-05 s⁻¹ | 2.02e-05 ± 9.5e-06 s⁻¹ | 3.57e-05 ± 7.2e-06 s⁻¹
17 | G37C A52G | < 1e-05 s⁻¹ | – | – | – | – | < 1e-05 s⁻¹ | –
18 | A14U U31C C34G A42G U47A G51A C71A | < 1e-05 s⁻¹ | – | – | < 1e-05 s⁻¹ | – | – | –
19 | C16A A64G | 0.00134 ± 0.00022 s⁻¹ | 2060 ± 520 µM | 0.000277 ± 3.5e-05 s⁻¹ | 0.00113 ± 0.00015 s⁻¹ | 0.000757 ± 7.7e-05 s⁻¹ | 3.87e-05 ± 8.2e-06 s⁻¹ | 9.99e-05 ± 1.3e-05 s⁻¹

Row | Variant | kcat (glucosamine-6-phosphate [1]) | KM (glucosamine-6-phosphate [2]) | self-cleavage kobs at 640 uM GlcN6P (glucosamine-6-phosphate [3]) | self-cleavage kobs at 10000 uM GlcN6P (glucosamine-6-phosphate [4]) | self-cleavage kobs at 2500 uM GlcN6P (glucosamine-6-phosphate [5]) | self-cleavage kobs at 40 uM GlcN6P (glucosamine-6-phosphate [6]) | self-cleavage kobs at 160 uM GlcN6P (glucosamine-6-phosphate [7])
20 | A12C U46C | 0.00298 ± 0.0008 s⁻¹ | 1680 ± 590 µM | 0.000606 ± 0.00017 s⁻¹ | 0.0026 ± 0.00058 s⁻¹ | 0.00273 ± 0.00089 s⁻¹ | 7.98e-05 ± 1.5e-05 s⁻¹ | 0.000265 ± 5.1e-05 s⁻¹
21 | A12U U31C U47G | 0.00222 ± 0.00076 s⁻¹ | 5110 ± 2400 µM | 0.000212 ± 4.5e-05 s⁻¹ | 0.00156 ± 0.00026 s⁻¹ | 0.000645 ± 0.00015 s⁻¹ | 4.15e-05 ± 1.7e-05 s⁻¹ | 8.69e-05 ± 1.9e-05 s⁻¹
22 | C16G U55G | 0.0033 ± 0.0015 s⁻¹ | – | 0.000789 ± 0.00012 s⁻¹ | 0.00368 ± 0.00057 s⁻¹ | 0.00148 ± 0.00031 s⁻¹ | 0.000147 ± 2.3e-05 s⁻¹ | 0.000227 ± 5.1e-05 s⁻¹
23 | A33G C50A | 1.1e-05 ± 2.3e-06 s⁻¹ | – | – | – | – | – | –
24 | G59U C67U | 2.54e-05 ± 5.9e-06 s⁻¹ | – | – | – | 3.07e-05 ± 7.5e-06 s⁻¹ | – | –
25 | G38U U55G | < 1e-05 s⁻¹ | – | – | – | – | – | < 1e-05 s⁻¹
26 | G41C G66C | 1.55e-05 ± 2.4e-06 s⁻¹ | – | < 1e-05 s⁻¹ | – | – | < 1e-05 s⁻¹ | –
27 | C11G | < 1e-05 s⁻¹ | 665 ± 260 µM | – | < 1e-05 s⁻¹ | – | < 1e-05 s⁻¹ | –
28 | A53C U57A U69A | 1.88e-05 ± 5.8e-06 s⁻¹ | – | – | – | – | – | –
29 | U69G C71G | 5.4e-05 ± 2.4e-05 s⁻¹ | – | 9.05e-05 ± 1.6e-05 s⁻¹ | – | 3.23e-05 ± 1.5e-05 s⁻¹ | – | –
30 | C61U C67A | 1.1e-05 ± 1.5e-06 s⁻¹ | – | – | – | – | – | –
31 | A15C U65C | 7.01e-05 ± 1.5e-05 s⁻¹ | – | – | 6.14e-05 ± 1e-05 s⁻¹ | 9.83e-05 ± 2.2e-05 s⁻¹ | – | –
32 | C11G G59U C68A | 1.43e-05 ± 2.1e-06 s⁻¹ | – | – | – | – | – | –
33 | A36G A64G | 2.02e-05 ± 1.1e-06 s⁻¹ | – | – | – | – | < 1e-05 s⁻¹ | < 1e-05 s⁻¹
34 | A15C C16A C68G | 2.65e-05 ± 7.2e-06 s⁻¹ | – | – | – | 2.94e-05 ± 1.3e-05 s⁻¹ | – | –
35 | U31A G41U | 0.000384 ± 3.8e-05 s⁻¹ | 430 ± 89 µM | 0.000289 ± 6.2e-05 s⁻¹ | 0.000344 ± 6e-05 s⁻¹ | 0.00034 ± 8.7e-05 s⁻¹ | 2.67e-05 ± 1.2e-05 s⁻¹ | 0.000103 ± 2e-05 s⁻¹
36 | G29A G41C | 3.14e-05 ± 5.6e-06 s⁻¹ | – | – | – | 2.97e-05 ± 1.2e-05 s⁻¹ | – | –
37 | C11G U30A | 4.67e-05 ± 2.4e-06 s⁻¹ | – | – | – | – | – | –
38 | U31C U47C | 0.000503 ± 6.2e-05 s⁻¹ | 2160 ± 430 µM | 0.000111 ± 2e-05 s⁻¹ | 0.00042 ± 0.00011 s⁻¹ | 0.000269 ± 5.7e-05 s⁻¹ | – | –
